# Biological target: Pertuzumab, 2 weeks stressed in PBS, pH 7.4
# Assay: SPR; Biacore T200; pertuzumab immobilized on a Series S Protein A sensor chip (145 RU); single-cycle kinetics, five sequential injections of HER2 from 1.22 to 100 nM; phosphate-buffered saline with 0.05% Tween 20; flow 30 μL/min; 1:1 binding model
# Sequence of Pertuzumab, 2 weeks stressed in PBS, pH 7.4 (heavy, as listed by the source, chain 1 of 2): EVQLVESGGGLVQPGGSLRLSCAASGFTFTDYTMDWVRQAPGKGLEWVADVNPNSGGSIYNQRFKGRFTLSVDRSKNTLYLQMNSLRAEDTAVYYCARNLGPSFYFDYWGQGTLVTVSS
# Sequence of Pertuzumab, 2 weeks stressed in PBS, pH 7.4 (light, as listed by the source, chain 2 of 2): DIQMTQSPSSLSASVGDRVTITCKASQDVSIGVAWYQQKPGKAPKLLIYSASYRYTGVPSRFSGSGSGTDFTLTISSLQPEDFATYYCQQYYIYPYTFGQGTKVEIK
substance,measurement,value
"Human HER2/ErbB2 protein, extracellular domain Thr23-Thr652, His Tag (from UniProt P04626 23-652) (domain or fragment)",Kd,2.3 nM
